Data: patent US20170021001A1

B1: peptide 51-18 (…) (peptide)
peptide: REEYARFDSDVGEYR
B2: peptide Du51 (…) (peptide)
peptide: NREEYARFDSDVGEYR
B3: peptide Bu31 (…) (peptide)
peptide: YLRYDSDVGEYRAVTE

Target: TCRs of Du51-specific CD8^+CD45RC^low Tregs (CD8^+CD40Ig Tregs) (rat)
Experiment: cell-based or functional assay

| Binder | CD25 upregulation on CD8^+CD40Ig Tregs, fold vs. no peptide (fold vs. no peptide) | CD25 expression at the cell surface of CD8^+CD40Ig Tregs, fold vs. no peptide (6 days coculture with matured syngeneic pDCs) (fold vs. no peptide) |
| --- | --- | --- |
| B1 | 2.04 | – |
| B2 | – | 2.07 |
| B3 | – | 1.67 |
